In article PMC3472187, “Crystal structure of HutZ, a heme storage protein from Vibrio cholerae: A structural mismatch observed in the region of high sequence conservation” (BMC Structural Biology, 2012):

Target: the molecule itself
Assay: SEC

B1: HutZ (residues 13-150, His tagged) (domain or fragment)
chain: RLEPEIKEFRQERKTLQLATVDAQGRPNVSYAPFVQNQEGYFVLISHIARHARNLEVNPQVSIMMIEDETEAKQLFARKRLTFDAVASMVERDSELWCQVIAQMGERFGEIIDGLSQLQDFMLFRLQPEQGLFVKGFG
notes: also called truncated HutZ; source: E. coli BL21 (DE3), purified (Ni-chelating Sepharose, Source 15Q, Superdex-200)
stoichiometry N: 2
